According to publication PMC11999606, “Dynein light chains 1 and 2 are auxiliary proteins of pH-sensitive Kir4.1 channels” (The Journal of Biological Chemistry, 2025):

B1: N-terminal FLAG-GFP-tagged full-length Kir4.1 (natural protein, UniProt P78508 1-379, looked up)
chain: MTSVAKVYYSQTTQTESRPLMGPGIRRRRVLTKDGRSNVRMEHIADKRFLYLKDLWTTFIDMQWRYKLLLFSATFAGTWFLFGVVWYLVAVAHGDLLELDPPANHTPCVVQVHTLTGAFLFSLESQTTIGYGFRYISEECPLAIVLLIAQLVLTTILEIFITGTFLAKIARPKKRAETIRFSQHAVVASHNGKPCLMIRVANMRKSLLIGCQVTGKLLQTHQTKEGENIRLNQVNVTFQVDTASDSPFLILPLTFYHVVDETSPLKDLPLRSGEGDFELVLILSGTVESTSATCQVRTSYLPEEILWGYEFTPAISLSASGKYIADFSLFDQVVKVASPSGLRDSTVRYGDPEKLKLEESLREQAEKEGSALSVRISNV
notes: Kir4.1 (KCNJ10), full length; also called F-GFP-Kir4.1; Kir4.1-WT; source: in detergent-solubilized membrane fraction, and purified; not shown: FLAG, N-terminal, kept; GFP, N-terminal, kept
B2: full-length Kir4.1, N-terminal tags cleaved off (natural protein, UniProt P78508 1-379, looked up)
chain: MTSVAKVYYSQTTQTESRPLMGPGIRRRRVLTKDGRSNVRMEHIADKRFLYLKDLWTTFIDMQWRYKLLLFSATFAGTWFLFGVVWYLVAVAHGDLLELDPPANHTPCVVQVHTLTGAFLFSLESQTTIGYGFRYISEECPLAIVLLIAQLVLTTILEIFITGTFLAKIARPKKRAETIRFSQHAVVASHNGKPCLMIRVANMRKSLLIGCQVTGKLLQTHQTKEGENIRLNQVNVTFQVDTASDSPFLILPLTFYHVVDETSPLKDLPLRSGEGDFELVLILSGTVESTSATCQVRTSYLPEEILWGYEFTPAISLSASGKYIADFSLFDQVVKVASPSGLRDSTVRYGDPEKLKLEESLREQAEKEGSALSVRISNV
notes: Kir4.1 (KCNJ10) inwardly rectifying potassium channel, full length; Purified as a tetramer that carries copurified endogenous LC8; also called KCNJ10; Kir4.1 WT; source: purified (FLAG resin, eluted by HRV 3C cleavage, Superose 6 SEC); not shown: FLAG, N-terminal, cleaved; GFP, N-terminal, cleaved
B3: full-length Kir4.1 protein with the ΔTQT deletion (natural protein, UniProt P78508 1-379, looked up)
chain: MTSVAKVYYSQTESRPLMGPGIRRRRVLTKDGRSNVRMEHIADKRFLYLKDLWTTFIDMQWRYKLLLFSATFAGTWFLFGVVWYLVAVAHGDLLELDPPANHTPCVVQVHTLTGAFLFSLESQTTIGYGFRYISEECPLAIVLLIAQLVLTTILEIFITGTFLAKIARPKKRAETIRFSQHAVVASHNGKPCLMIRVANMRKSLLIGCQVTGKLLQTHQTKEGENIRLNQVNVTFQVDTASDSPFLILPLTFYHVVDETSPLKDLPLRSGEGDFELVLILSGTVESTSATCQVRTSYLPEEILWGYEFTPAISLSASGKYIADFSLFDQVVKVASPSGLRDSTVRYGDPEKLKLEESLREQAEKEGSALSVRISNV
notes: Kir4.1 (KCNJ10), full length, with the three TQT residues (13-15) deleted; also called Kir4.1-ΔTQT; not shown: GFP, N-terminal, kept

Molecular target: the molecule itself
Experiment: SEC; purified Kir4.1 proteins on a Superose 6 column in glyco-diosgenin-containing buffer; pH 8.0 and pH 6.0 for the WT without tags; tetramer peak

Stoichiometry N, 4:
B1
B2
B3
